First the molecules themselves.
B1: Hairpin Ribozyme (parent)
chain: GUCCUCUUUCACGUGCGCGUGAAAGAGAGAAGUGAACCAGAGAAACACACGUUGUGGUAUAUUACCUGGUA

In this series the parent is B1. The experiment in a line: self-cleavage, relative activity (ratio to wild type); higher = more cleavage; co-transcriptional.
In the case of C12G A22C, the self-cleavage was 0.518.

As to U67G U70G, the self-cleavage worked out at 0.125.

Turning to A23C U53A, the self-cleavage turned out to be 0.757.

G1A A64C: the self-cleavage is 0.0979.

Take G34U A47C: the self-cleavage came out at 1.2.

For the variant C12G G15A, the self-cleavage is 0.881.

With A43G A71U, the self-cleavage stood at 0.16.

C18G A41U: the self-cleavage turned out to be 0.906.

In the case of C4A U7G, the self-cleavage is 0.221.

Consider A31G U62A, for which the self-cleavage is 0.127.

In the case of C66A A71U, the self-cleavage is 0.184.

For A43C G54C, the self-cleavage came out at 0.163.

As for A26G G57A, the self-cleavage came out at 0.196.

Turning to A26U U63G, the self-cleavage turned out to be 0.158.

With U14G C50G, the self-cleavage turned out to be 0.2.

C65A U70A: the self-cleavage turned out to be 0.686.

For the variant C48G U67A, the self-cleavage was determined as 0.259.

As for G19C U67C, the self-cleavage was 0.176.

On to C38A C66G, for which the self-cleavage is 0.114.

With C46A A64C, the self-cleavage came to 0.0755.

Regarding C46A A64G, the self-cleavage amounted to 0.185.

A43U C65A: the self-cleavage amounted to 0.0905.

Regarding C16U A71U, the self-cleavage was found to be 0.859.

As for A24C A41U, the self-cleavage came to 0.996.

As for G13A C50U, the self-cleavage was 0.373.

U14G C46G: the self-cleavage came out at 0.131.

As to U5A A47C, the self-cleavage was 0.187.

As to G32A C46U, the self-cleavage was 0.148.

With G32A A61U, the self-cleavage was 0.154.

Turning to G40U U63A, the self-cleavage was 0.138.

Regarding C50A U67G, the self-cleavage is 0.118.

Consider U33C A45G, for which the self-cleavage came to 0.227.

Regarding G32A U70C, the self-cleavage is 0.0825.

For G29A C38G, the self-cleavage is 0.101.

As to G34A A35U, the self-cleavage came to 0.569.

Regarding A24G G57U, the self-cleavage was found to be 0.307.

On to A23G C65G, for which the self-cleavage was determined as 0.392.

As to A39G G42U, the self-cleavage was 0.107.

Regarding C50U U62G, the self-cleavage was determined as 0.158.

As to G29A G68C, the self-cleavage was determined as 0.143.

Regarding C3A C10A, the self-cleavage was 0.461.

For the variant U7G U14G, the self-cleavage was determined as 0.729.

On to A31C U55G, for which the self-cleavage came to 0.1.

On to A24U A39U, for which the self-cleavage was found to be 0.38.

With C4U A59C, the self-cleavage was 0.126.

Consider A23G U60A, for which the self-cleavage stood at 0.694.

In the case of U5G U55G, the self-cleavage turned out to be 0.2.

Consider A23C G25C, for which the self-cleavage worked out at 0.147.

Turning to G19C A64G, the self-cleavage is 0.545.

For the variant A11C G17U, the self-cleavage amounted to 0.745.

For the variant A24G A43U, the self-cleavage is 0.104.

For A11G G34U, the self-cleavage turned out to be 1.17.

On to G27A U52A, for which the self-cleavage was found to be 0.337.

Regarding G32C A71U, the self-cleavage turned out to be 0.157.

With U2A U55C, the self-cleavage came out at 0.153.

On to C37G A45U, for which the self-cleavage came to 0.188.

For the variant U33C A41U, the self-cleavage was 0.159.

Take C3U A22C: the self-cleavage came to 0.491.

As to C12G A39G, the self-cleavage is 0.29.

As to U20C U55G, the self-cleavage is 0.426.

With C6A G54C, the self-cleavage is 0.209.

Regarding G34C A59C, the self-cleavage was 0.145.

As to C6A C38U, the self-cleavage was 0.354.

For the variant A22U C66U, the self-cleavage is 0.482.

A28C C46A: the self-cleavage came to 0.191.

Regarding G1C U60G, the self-cleavage worked out at 0.0347.

For the variant U20G U67A, the self-cleavage is 0.241.

Consider G29U U62C, for which the self-cleavage stood at 0.0779.

On to C12G A44U, for which the self-cleavage turned out to be 0.147.

Regarding A47U U55A, the self-cleavage amounted to 0.161.

Take U5G A35G: the self-cleavage was 0.36.

As for C50U A61G, the self-cleavage turned out to be 0.199.

U67C G69C: the self-cleavage came to 0.188.

On to C6A A71C, for which the self-cleavage worked out at 1.14.

Consider G19U C66U, for which the self-cleavage is 0.334.

Consider G1A U52C, for which the self-cleavage came out at 0.181.

Consider G25U A28G, for which the self-cleavage came to 0.971.

Consider U7G G40A, for which the self-cleavage was determined as 0.308.

U33A G56U: the self-cleavage worked out at 0.156.

For C6G A11C, the self-cleavage turned out to be 0.45.

Take G13U A36C: the self-cleavage worked out at 0.537.

With A22G C46G, the self-cleavage came to 0.208.

As to G17C G54C, the self-cleavage was determined as 0.387.

On to G51A U60C, for which the self-cleavage was determined as 0.944.

In the case of A24G C46G, the self-cleavage was 0.105.

For the variant G15U U67C, the self-cleavage came to 0.267.

In the case of U5A G27C, the self-cleavage came out at 0.187.

As for U9C G15A, the self-cleavage turned out to be 0.76.

A39C G69A: the self-cleavage was 0.168.

Consider C12G G19U, for which the self-cleavage amounted to 0.997.

In the case of G15C A39U, the self-cleavage came to 0.402.

Consider C48A G56C, for which the self-cleavage was determined as 0.131.

Regarding G29A A47U, the self-cleavage was 0.107.

For the variant C18A A59G, the self-cleavage came out at 0.272.

As for C12U A22U, the self-cleavage was 0.759.

As to G25A A31U, the self-cleavage turned out to be 0.0553.

For A43C A71C, the self-cleavage came to 0.26.

As to A30U A31C, the self-cleavage worked out at 0.288.

Consider U2C U70G, for which the self-cleavage came out at 0.269.

As to C48U C66U, the self-cleavage came to 0.194.

With U33C C46A, the self-cleavage was 0.0278.

For U14G U67C, the self-cleavage was 0.145.

With C12A A41G, the self-cleavage is 0.736.

Consider C50G G51U, for which the self-cleavage was 0.375.

On to A44C C48A, for which the self-cleavage turned out to be 0.161.

For the variant A35G C65A, the self-cleavage is 0.867.

A43C A49U: the self-cleavage stood at 0.142.

For the variant U9G G69U, the self-cleavage amounted to 0.111.

With G15C U33A, the self-cleavage was 0.0629.

With U60G C66G, the self-cleavage came out at 0.261.

Take C18G A49U: the self-cleavage was 0.196.

Consider U8A U14G, for which the self-cleavage stood at 0.401.

G54A A59C: the self-cleavage was 0.307.

As to A45U G54C, the self-cleavage turned out to be 0.23.

On to U5A C46A, for which the self-cleavage was 0.16.

As for C4G G54U, the self-cleavage amounted to 0.228.

Regarding U53C G69C, the self-cleavage stood at 0.43.

On to U2C A45U, for which the self-cleavage is 0.0729.

Regarding A49U G54C, the self-cleavage was found to be 0.28.

Consider C16G C37G, for which the self-cleavage came to 0.386.

For G21C U63C, the self-cleavage was 0.196.

Take G29A U58G: the self-cleavage was determined as 0.13.

In the case of G17U G68C, the self-cleavage is 0.162.

For G25A G54A, the self-cleavage stood at 0.292.

As for C16A C37G, the self-cleavage was determined as 0.324.

On to G27U G40C, for which the self-cleavage was 0.0532.

For the variant C18A A49U, the self-cleavage was 0.264.

In the case of G21C A31G, the self-cleavage amounted to 0.275.

As for U9G G25C, the self-cleavage came to 0.255.

Turning to G27C G42U, the self-cleavage worked out at 0.172.

As for G34U A71G, the self-cleavage is 1.58.

Consider C16A G27C, for which the self-cleavage turned out to be 0.218.

A47G G51U: the self-cleavage came out at 0.15.

As for G17A U33C, the self-cleavage is 0.113.

As to G32C U52G, the self-cleavage is 0.125.

For A49C G54C, the self-cleavage came out at 0.187.

Turning to A30G C50A, the self-cleavage came to 0.0824.

Regarding G1A G21C, the self-cleavage is 0.119.

With U20A G54C, the self-cleavage was found to be 0.362.

On to C4U A26G, for which the self-cleavage was 0.221.

Consider U5A A64C, for which the self-cleavage was 0.151.

Turning to G21A A39U, the self-cleavage was 0.346.

For the variant A11G A35G, the self-cleavage came out at 0.764.

Take C4A U62A: the self-cleavage amounted to 0.167.

Consider A31G C38G, for which the self-cleavage was determined as 0.0773.

On to C4G U55G, for which the self-cleavage is 0.113.

Consider A26C U63A, for which the self-cleavage was 0.175.

For the variant G19C U63A, the self-cleavage was 0.107.

For C10A G15A, the self-cleavage came to 0.773.

As to A28U G40C, the self-cleavage came to 0.0881.

For the variant A28G U33C, the self-cleavage stood at 0.155.

Consider U8C G15A, for which the self-cleavage came to 0.743.

As for G25C G29C, the self-cleavage amounted to 0.166.

For G21C G54A, the self-cleavage is 0.392.

On to C37U U52C, for which the self-cleavage was 0.651.

With C37U U52G, the self-cleavage was 0.527.

On to G1C C48G, for which the self-cleavage is 0.086.

For the variant G56U C66G, the self-cleavage is 0.22.

With G1A U67G, the self-cleavage turned out to be 0.116.

Take G42U G51U: the self-cleavage came to 0.345.

In the case of A31G G69A, the self-cleavage came to 0.178.

Consider A43U G56U, for which the self-cleavage is 0.133.

Turning to G1C A49C, the self-cleavage was found to be 0.159.

With U62C C66G, the self-cleavage came out at 0.213.

In the case of A11U U33A, the self-cleavage was 0.0768.

Turning to U5C U20A, the self-cleavage turned out to be 0.532.

U9A U63G: the self-cleavage is 0.151.
